Laboratory results reported in US20230324408A1 (JUNO THERAPEUTICS, published 2023).

B1: anti-idiotype antibody clone F101 (antibody, mouse IgG1, kappa, V domains shown)
VH: QVQFQQSGAELARPGASVKLSCKASGYTFTSYWMQWVKQRPGQGLEWIGTIYPGDGDARYSQKFKGKATLTADKSSSTAYMQLSSLASEDSAVYYCTRRRGYDAMDYWGQGTSVTVSS
VL: NIVLTQSPASLAVSLGQRATISCRASESVDSYGSSFMHWYQEKPGQPPKLLIFLASNLESGVPARFSGSGSRTDFTLTIDPVEADDAATYYCQQNNEDPNMYTFGGGTKLEIRR
B2: anti-idiotype antibody clone F112 (antibody, mouse IgG1, V domains shown)
VH: QVQLQQPGAELVRPGASVKLSCKASGYPFTSYWINWVKQRPGQGLEWIGMIDPSDSETHYNQMFKDKATLTVDRSSSTAYMHLSSLTSEDSAVYYCARGGIRDYWGQGTTLTVSS
VL: QAVVTQESALTTSPGETVTLTCRSSTGAVTTSNYANWVQEKSDHLFTGLIGGTNNRAPGVPARFSGSLIGDKAALTITGAQTEDEAIYFCALWYSNHWVFGGGTKLTVLG
B3: anti-idiotype antibody clone F107 (antibody, mouse IgG1, kappa, V domains shown)
VH: QVTLKESGPGILKPSQTLSLTCSFSGFSLNTFGMGVGWIRQPSGKGLEWLAHIWWDDDKHYHPSLKSQLTISKDTSRNQVFLKITSVDTTDTATYYCVRRYRYDVFDYWGPGTTLTVSS
VL: DVMMTQTPLSLPVSLGDQASISCRSSQSLVHSNGNTYLHWYLQKPGQSPKLLIYKVSNRFSGVPDRFSGSGSGTDFTLKISRVEAEDLGVYFCSQSTHGPWTFGGGTKLEIKR

These binders were tested against exemplary anti-ROR1 (ROR 1-1) chimeric antigen receptor (assay: cell-based or functional assay).
Sequence of exemplary anti-ROR1 (ROR 1-1) chimeric antigen receptor (chain, as listed by the source mutant limits assumed): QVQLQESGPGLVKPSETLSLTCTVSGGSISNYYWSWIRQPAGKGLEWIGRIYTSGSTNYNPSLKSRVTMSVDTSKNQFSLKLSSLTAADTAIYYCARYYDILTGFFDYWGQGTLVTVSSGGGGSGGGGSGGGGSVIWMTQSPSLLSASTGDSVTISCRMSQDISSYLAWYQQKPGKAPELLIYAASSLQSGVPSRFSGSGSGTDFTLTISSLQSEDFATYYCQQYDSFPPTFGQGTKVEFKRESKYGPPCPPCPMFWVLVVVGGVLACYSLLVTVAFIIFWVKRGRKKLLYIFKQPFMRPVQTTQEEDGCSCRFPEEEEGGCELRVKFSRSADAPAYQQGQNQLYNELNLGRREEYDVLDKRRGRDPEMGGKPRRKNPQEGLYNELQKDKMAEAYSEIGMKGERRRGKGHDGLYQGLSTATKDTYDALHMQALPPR

First: B1
Second: B2
The “% Nur77-TdT of EGFRt+ cells, plate coated with 5 ug/ml antibody” value of the first is higher: 89.8% for the first, 83.9% for the second.

For B3, the “% Nur77-TdT of EGFRt+ cells, plate coated with 5 ug/ml antibody” value was 85%.

Target: exemplary anti-ROR1 (ROR 1-1) chimeric antigen receptor
Assay: cell-based or functional assay
Remark: another data set of the same source

Compared with B1, B2 is higher in “% Nur77-TdT of EGFRt+ cells, soluble antibody 0.3 ug/mL” value: 11.4% for the first, 38.3% for the second.

With B3 the “% Nur77-TdT of EGFRt+ cells, soluble antibody 0.3 ug/mL” value was 15.6%.

First: B1
Second: B2
The “% Nur77-TdT of EGFRt+ cells, soluble antibody 0.6 ug/mL” value of the first is lower: 11.8% for the first, 41.3% for the second.

B3 was tested, and the “% Nur77-TdT of EGFRt+ cells, soluble antibody 0.6 ug/mL” value was 19.9%.

Going from B1 to B2, the “% Nur77-TdT of EGFRt+ cells, soluble antibody 10 ug/mL” value rises from 11.7% to 43.2%.

For B3, the “% Nur77-TdT of EGFRt+ cells, soluble antibody 10 ug/mL” value was 28.3%.
